Experimental data: paper PMC6811742, “No interactions between heparin and atacicept, an antagonist of B cell survival cytokines” (British Journal of Pharmacology, 2019)

B1: Flag‐ACRP‐hAPRIL (ligand)
chain: not shown
notes: linker after the Flag tag; human ACRP30 (adiponectin), residues 16-108; linker; human APRIL, residues 105-250, starting at alanine 105 just after the furin cleavage site; also called Flag‐APRIL; ps1088; source: HEK293 cells, purified on anti‐Flag agarose
B2: Atacicept (TACI (30–110)‐Fc) (Fc fusion, human, UniProt O14836 30-110, looked up)
chain: AMRSCPEEQYWDPLLGTCMSCKTICNHQSQRTCAAFCRSLSCRKEQGKFYDHLLRDCISCASICGQHPKQCAYFCENKLRS
notes: also called TACI‐Fc; dimeric atacicept; source: provided by Merck (Darmstadt, Germany); also in sera of human subjects after 150 mg subcutaneously

How the values were obtained:
[1] = target: B2; test: ELISA; plates coated with atacicept at 1 μg/ml in PBS, blocked, incubated with the indicated concentrations of Flag‐APRIL; revealed with anti‐Flag reagents; settings: both partners purified
[2] = target: T1, Flag‐mBAFF (mouse, UniProt Q9WU72 127-309); test: AlphaScreen or HTRF; AlphaLISA of atacicept diluted in mouse plasma with a matched pair of anti‐TACI antibodies (biotinylated ATA2, ATA3 acceptor beads), with or without recombinant mouse BAFF, with or without acid dissociation; conversely AlphaLISA of mouse BAFF in Baff−/− serum with 0, 100 or 2000 ng/ml atacicept; settings: both partners purified
T1 construct: linker after the Flag tag; mouse BAFF, residues 127-309; that it is Flag‐mBAFF (ps657) is surmised; Encoded with an HA signal before the Flag tag; also called recombinant mouse BAFF; mouse BAFF
T1 sequence (Q9WU72 other isoform, or with tags, fused parts or gaps): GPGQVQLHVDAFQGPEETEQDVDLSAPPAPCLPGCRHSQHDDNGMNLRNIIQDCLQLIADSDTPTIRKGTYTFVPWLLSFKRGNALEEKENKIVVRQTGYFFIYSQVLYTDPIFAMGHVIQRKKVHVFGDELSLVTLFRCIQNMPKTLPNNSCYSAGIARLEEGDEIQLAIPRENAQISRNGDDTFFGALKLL

binding result [1]	binding result [2]	Binder
binds		B1
	binds	B2
